40 sequences from the nanobody polyreactivity screen of Harvey et al. (2022) can be followed below.

The series is described as follows: yeast display, Sf9 membrane polyspecificity reagent, FACS + sequencing; frameworks hold sequencing errors. The gist of the method: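 A nanobody's polyreactivity label depends on the gate it was sorted from. Yeast display cells were stained with 10% biotinylated, detergent-solubilized Sf9 membrane reagent for 1 hour at 4 °C, enriched on streptavidin microbeads and sorted by FACS. The low and high (top ~1%) gates were set on anti-HA fluorescence for expression and streptavidin fluorescence for reagent binding.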
Turning to “QVQLVESGGGLVQAGGSLRLSCAASGSTFRRNAMGWYRQAPGKERELVAAITRRGTSTYYADSVKGRFTISRDNAKNTVYLQMNSLKPEDTAVYYCNAPRPYQDGKFGYWGQGTQVTVSS”, the “polyreactivity (PSR sort gate)” value is listed as “high polyreactivity”.
As to “QVQLVESGGGLVQAGGSLRLSCAASGSIFWPYTMGWYRQAPGKEWELVAAITSTDSTDYADSVKGRFTISRDNAKNTVYLQMNSLKPEDTAVYYCNADYQSRTGSVIYTAHPYDYWGQGTQVTVSS”, the “polyreactivity (PSR sort gate)” value was “low polyreactivity”.
Turning to “QVQLVESGGGLVQAGGSLRLSCAASGRTFSWYAMGWYRQAPGKEREFVATISASGGSTYYADSVKGRFTISRDNAKNTVYLQMNSLKPEDTAVYYCAADRSIRFFSPANYDYWGQGTQVTVSS”, the “polyreactivity (PSR sort gate)” value is reported as “high polyreactivity”.
On to “HVQLLESGGGLVQAGGSLRLSCAASGSTFVYYAMGWYRQAPGKERELVAVITRGGRTYYADSVKGRFTISRDNAKTTVYLQMNSVKPEDSEVYYCNKVTPIYHDTVLDYWGQGTQVTVSS”, for which the “polyreactivity (PSR sort gate)” value is on record as “high polyreactivity”.
“QVQLVESGGGLVQAGGSLRLSCAASGNTFGYNAMGWYRQAPGKERELVASITWSGGSTYYADSVKGRFTISRDNAKNTVYLEMKSLKPEDTAVYYCNADVRYGRDHWGQGTQVTVSS”: the “polyreactivity (PSR sort gate)” value is “low polyreactivity”.
For “QVQLVESGGGLDQAGGSLRLSCAASGSTFWGYTMGWYRQAPGKERELVAAITSGGSTNYADSVKGRFTISRDNAKNTVYLQMYSLKPEDTAVYYCNAVYPGRRRYRKWYIYDYWGQGTQVTVSS”, the “polyreactivity (PSR sort gate)” value is “high polyreactivity”.
Take “QVQLVDSGGGLVQAGGSLRLRGAASGRIFFYYAMGWYRQAPGKERELLAAITYSVDSTYYADSVKGRFTISRDNAKNTVYLQMNSLKPEDTAVYYCAADDIHYVIHAYYSSGVDYWGQGTQVTVSS”: the “polyreactivity (PSR sort gate)” value is “low polyreactivity”.
As to “QVQLVDSAGGLVQAGGSLRLSCAASGFIFRRNAMGWYRQAPGKERELVAGINRSGTRTYYADSVKGRFTISRDNAKNTVNLQMNSLKPEDTAVYYCAALVYRPTYGYIFDYWGQGTQVTVSS”, the “polyreactivity (PSR sort gate)” value is recorded as “high polyreactivity”.
Next, “QVQLGHSGGGLVQAGGSLRLTCAPSGSIFGYKAMGWYRQAPGKERELVAAISSTGGSTYYADSVKGRFTISRDNAKNTVYLQMNSLKPEDTAVYYCAKQVADRYVYWGQGTQVTVSS”: “low polyreactivity”; “QVQLVESGGGLVQARGSLRLSCAASGFIFSYYAMGWYRQAPGKERELVAAISSSGGTTYADSVKGRFTISRDNAKNTVYLQMNSLKPEDTAVYYCARVQYWFYKPMYYWGQGTQVTVSS”: “high polyreactivity”; “QVQLVESGGGLVQAGGSLRLSCAASGSTRYYMGWYRQAPGKEREMVAAISKSGGTTYYADSVKGRFTISRDNAMTTVYLQMTSLKPEDTAVYYCAAQRSRSYTYDYWGQGTQVTVSS”: “high polyreactivity”.
For “QVQLVESGGGLVQAGGGLRLSCAASGTFKRNAMGWYRQAPGKERELVATITRTGSTTYADSVKGRFTISRDNAKNTVYLQMNSLKPEDTAVYYCNRVTKEYGLRQYYYWGQGTQVTVSS”, the “polyreactivity (PSR sort gate)” value was “low polyreactivity”.
For the sequence “QFQLVESGGRLDQAGGSLRLSCAASSSIFDDYAMGWYRQAPGKERELVAAISWSGGSTYYADSVQGRFTISRDNPNHTVYLQMNSLKREDTAVYYCAAYAYDYLYGEYYWGQGTQVTVSS”, the “polyreactivity (PSR sort gate)” value is listed as “low polyreactivity”.
In the case of “QVQLVESGGCLVQAGGILRLSCAASGSTFWIYAMGWYRQAPGKERELVAAITLRSGSTYYADSVKGRYTISRDNAKNTVFLQMNSLKPEDTAVYYCATDSWGVDRPNYNYWGQGTQVTVSS”, the “polyreactivity (PSR sort gate)” value is “low polyreactivity”.
Take “QVQRVESGGGLVQAGGSLRLSCAASGNTFKYNTMGWYRQAPGTERELVAAISSGGNTKYADSVKGRFTISRDNGKNTDYFQMNSLKPEDTAVNYCATTFPRKGRFRYDYWGQGTQVTVSS”: the “polyreactivity (PSR sort gate)” value is reported as “high polyreactivity”.
“QVQLVDSGGGLVQAGGSLRLSCAASGRIFGAYTMGWYRQAPGKEREFVADITSGGSTDYADSVKGRFTISRDNAKNTVSLQMNSLKPEDTAVYYCAAGGWVASLYLYDYWGHGTQVTVSS”: the “polyreactivity (PSR sort gate)” value was “low polyreactivity”.
Take “QVQLVESGGGLVQAGGSLRLSCAASGRIFNAYAMGWYRQAPGKERELVASISWSGGSTFYADSVKGRFTISRDNAKNTVYLQMNSLKPEDTAVYYCNADRRSSRHWWSITAYEYWGQGTQVTVSS”: the “polyreactivity (PSR sort gate)” value is “high polyreactivity”.
“QVQLVESGGGLVQAGGSLRLSCAASGRTITRYTMGWYRQAPGKERELVAAIRYSGGSTYYADSVKGRFTISRDTAKNTIYLQMNSLKPEDTAVYYCAARSYYYGFLYSYDYWGQGTQVTVSS”: the “polyreactivity (PSR sort gate)” value was “low polyreactivity”.
Next, “QVQLVESGGGLVQAGGSLRLSCAASGSTFGGNAMGWYRQAPGKERELVAAISSGDSTTYADSVKGRFTISRDNAKNTVYLQMNSLKPEDTAVYYSNRSPKSGQVTYLYSVNAHYDYWGQGTQVTVSS”: “low polyreactivity”; “QVQLVESAGGLVQAGGSLRLSCAASGSTFTYYAMGWSRQAPGKESELVAAISSGASTYYADSVKGRFTFSRDNAKNTVYLQMNSLKPEDTAVYYCNAKKSIRPYRTGMDYWGQGTQVTVSS”: “high polyreactivity”; “QVQLVESGGGLVQAGGSLSLSCAASGSIFNRYTMGWYRQAPGKERELVADISKSGTRTYYADSVKGRFTISRDNAKNTVYLQMNSQKPEDTSVYYCAKSSVAVYQTRYDYWGQGTQVNVSS”: “high polyreactivity”.
On to “QVQLVESGGGLVQAGGILSLSCAASGSTFVGNAMGWYRPAPGKERELVATISNSGGRTYYADSVKGRFTISRDNAKNTVYLQMNSLKPEETAVYYCAADPPAFGPGYSFDYWGHGTQVTVSS”, for which the “polyreactivity (PSR sort gate)” value was “low polyreactivity”.
Turning to “QDQLVESGGGLVQAGGTLRLSCDASGSTFFRNAMGWYRQPPGKEREMVADISASGGSTYYADSVKGRFTISRDNAKNTVYLQMNSLKPEDNADYYCNALYIYFYNYLTMDYWGQGSQVTVSS”, the “polyreactivity (PSR sort gate)” value is on record as “low polyreactivity”.
As to “QVQLVESRGGLVQAGGSLRLSCAASVRTFQKNTMGWYRQAPGKERELVAAIDYSATSTYYADSVKGRFTISRDNAKNTVYLQMNSLKPEDTAVYYCAARWSYPRWEFDYWGQGTQVTVSS”, the “polyreactivity (PSR sort gate)” value is “high polyreactivity”.
As to “QVQLVESGGGLVHAGGSLRLSCSASGRTFRHYAMGWYRQAPGKEREMVAVISWRGTGTYYADSVKGRFTISRDNAKNTVYLQMNSLKPEDTAVYYCATVWGLGYRMNYWGQGTQVTVSS”, the “polyreactivity (PSR sort gate)” value is on record as “high polyreactivity”.
Next, “QVQLVESGGGLVQAGGSLRLSCAASGSTFHLNAMGWYRQAPGKERELVAAISWDGSSTSYADSVKGRFTISRDNAKNTVYLQMNSLKPEDTAVYYCAKRSSGVSVPVAYGGIKRYNSWGQGTQVTVSS”: “low polyreactivity”.
“QVQLVESGGGLVQAGGSLRLSCAASGLTIQRNDMGWYRQAPGKEREFVATITSNAGSTYYADSVKGRFTISRDNAKNPVYFQMNSLKPEDTAVYYWARERWWGGSDYWGQGTQVTVSS”: the “polyreactivity (PSR sort gate)” value was “high polyreactivity”.
As to “QVQLQESGGGLVQAGGSLLSCAASGTISYYREMGWYRQAPGKERELVAGIGVGTITYYADSVKGRFTISRDNAKNTVYLQMNSLKPEATAVYYCAAHIDGNDSHAYWGQGTQVTVSS”, the “polyreactivity (PSR sort gate)” value is “low polyreactivity”.
As to “QVQLVESGGGLVQAGGSLRLSCAASGSIFYYYGMGWYRQAPGKERELVAGISSRGGRTYYADSVKGRFTISRDNAKNTVYLQMNSLKPEDTAVYYCAADRYYYAYRYYPSGYWGQGTQVTVSS”, the “polyreactivity (PSR sort gate)” value was “low polyreactivity”.
As for “QVQHVESGVGLVQAGGSLRLSCAASGRTFHSSTMGWYRLAAGKERELVAAISKSGGSTYYADSVKGRFTLSRDNAKNTVYLQMNSLKPEDTAVYYCAADPGSRVHPGVYYWGQGTQLTVSS”, the “polyreactivity (PSR sort gate)” value is reported as “high polyreactivity”.
For the sequence “QVQLVESGGGLVQAGGSLRLSCAASGFIFSYYAMVWYRQAPGTERELVAAISSSGSRTYYADSVKGRFTISRDNAKNTVYLQMNSLKPEDTAVYYCAARGAAKYGYWGQGTQVTVSS”, the “polyreactivity (PSR sort gate)” value is “high polyreactivity”.
Regarding “QVQLVESGGGLVQAGGSLRLSCAASGRIFKLNDMGWYRQAPGKERELVAAITRGTGSTYADSVKGRFTISRDNAMNTVYLQMNSLKPEDTAVYDCATRYSYRRLSFPRPDEMEYWGQGTQVTVSS”, the “polyreactivity (PSR sort gate)” value is given as “low polyreactivity”.
As for “QVQLVESGGGLVQAGGSLRLSCAASGRTFYPNTMGWYRQAPGKERELVATITRSGGNTYADSVKGRFTISRDNAKNTVYLQMNSLKREDTAVYYCNADQRRSYWLVSQRYDYWGQGTQVTVSS”, the “polyreactivity (PSR sort gate)” value is given as “low polyreactivity”.
As for “QVQLEESGGGLVQAGGSLRLSCAASGRIFIAYTMGWYRQAPGKERELVAAITWNGGSTYYADSVKGRFTISRDNAMNTVYLQMNSLKPEDTAVYYWVLVSRPGPKPAREMDYWGQGTQVTVSS”, the “polyreactivity (PSR sort gate)” value was “low polyreactivity”.
Regarding “QVQLVESGGGLVQAGGSLRLSCAASGRIIGNYAMGWYRQAPGKERELVAAISNGGSTNYADSVKGRFTISRDNAKNTVYLQMNSLKPEDTAVYYCNADQWAVIWGYMVLDFYYWGQGTQVTVSS”, the “polyreactivity (PSR sort gate)” value is reported as “low polyreactivity”.
On to “QVKLVESGGGLVQAGGSLRLTCAASGRIFEDYVMGWYIKAPGKERELVAGISGSGGITYYADSVKGRFTISRDNAKNTVYLQMNSLKPEDTAVYYCATAAASHKYGYWGQGTQVTVSS”, for which the “polyreactivity (PSR sort gate)” value is recorded as “low polyreactivity”.
“QVQLVESGGGLVQAGGSLRLSCAASGRIFDVYAMGWYRQAPGKERELVAAITWSGGRTYYADSVKGRFTISRDNAKNTVYLQLNSLKPEDTAVYYCAAEKPYVRGYLWTYDYWGQGTQVTVSS”: the “polyreactivity (PSR sort gate)” value is “low polyreactivity”.
As to “QVQLVESGGGLVQAGGSLRLSCAASGSTFGWYAMGWYRQAPGKERELVAAITSVGSTYYADYVKGRFTISRDNAKNTVYLQMNSLKPEDTAVYYCANRFGYGWAWFGYWGQGTQVTVSS”, the “polyreactivity (PSR sort gate)” value is listed as “low polyreactivity”.
On to “QVQLVESGGGLVQAGGSLRLSCAASGSTVYASVMGWSRQAPGKARELVAAITSAGSTDYADSVKGRFTISRDNAKNTVYLQMNSRKPEDTAVYYCAADAYTDSPYYKYDYWGQGTQVTVSS”, for which the “polyreactivity (PSR sort gate)” value is on record as “low polyreactivity”.
As to “QVQLGESGGGLVQAGGSLRLSCAASGIIFYEYVMVWYRQAPGKEREFVATISSIGGSTYYADSVKGRFTISRDNAKNTVYLQMNSRKPADTAVYYCAADPDPVVAPGGNWYGDDYWGQGSQVTVSS”, the “polyreactivity (PSR sort gate)” value was “high polyreactivity”.
